For one substance, stoichiometry N results are on record in article PMC12609076.

In experiment [1] the target is Bradyrhizobium japonicum SemiSWEET (Bradyrhizobium japonicum). The experiment is described as follows: not stated; BjSemiSWEET in liposomes (fig. S8B); method not given.
Experiment [2] has the same target. The experiment is described as follows: not stated; BjSemiSWEET in detergent (fig. S8A); method not given.

In general, stoichiometry N refers to a count of units in the complex or per binding partner. As to “Bradyrhizobium japonicum SemiSWEET (natural protein)”, the stoichiometry N in experiment [1] and in experiment [2] was 2 throughout.
